We go through four substances from article PMC7565637.

Assay [1] concerns the target Orsay virus capsid protein (CP) (Orsay virus). Description: co-sedimentation; infectious Orsay virions from culture supernatant of infected rde-1 worms, Triton X-100 treated, pelleted, banded on a 25% to 47.5% iodixanol step gradient (~1.3 g/ml); SDS-PAGE and Western blot with anti-CP antiserum, band intensities measured with Fiji.
Assay [2] has as its target Orsay δ(1–101) (Orsay virus). Description: crystal structure; Orsay δ(1–101) crystallised by hanging drop, 0.1 M ammonium sulfate, 0.1 M sodium acetate pH 4.6, 25% PEG 4000, 20°C; space group P212121, five chains in the asymmetric unit; 1.8 Å.
Assay [3] deals with full-length Le Blanc δ (Le Blanc virus). The experiment in a line: intact-protein LC-MS (reverse phase C3 column, Orbitrap); purified δ diluted to 200 ng/μl in 2% ACN, 0.1% FA; ZORBAX C3-300SB column, gradient 5% to 95% B; Orbitrap Fusion Lumos, positive mode; observed mass compared with the theoretical pentamer mass.
For assay [4], the target named is full-length Santeuil δ (Santeuil virus). Described as above.

“Orsay CP-δ fusion protein (natural protein)” registered a pentameric CP-δ fibers per viral particle (fibers per viral particle) in assay [1] of 1.1.
One may read the stoichiometry N as the number of molecules, sites or subunits per partner or assembly. In the case of Orsay δ(1–101) (domain or fragment), the stoichiometry N in assay [2] is 5.
Consider “full-length Le Blanc δ (natural protein)”, for which the stoichiometry N in assay [3] turned out to be 5.
In assay [4], “full-length Santeuil δ (natural protein)” registered a stoichiometry N of 5.
